Experimental data taken from IntAct's records for PubMed 14561633.

B1: Transcription factor GLABRA 3 (Arabidopsis thaliana (Mouse-ear cress)), Q9FN69 (parent)
chain: MATGQNRTTVPENLKKHLAVSVRNIQWSYGIFWSVSASQSGVLEWGDGYYNGDIKTRKTIQASEIKADQLGLRRSEQLSELYESLSVAESSSSGVAAGSQVTRRASAAALSPEDLADTEWYYLVCMSFVFNIGEGMPGRTFANGEPIWLCNAHTADSKVFSRSLLAKSAAVKTVVCFPFLGGVVEIGTTEHITEDMNVIQCVKTSFLEAPDPYATILPARSDYHIDNVLDPQQILGDEIYAPMFSTEPFPTASPSRTTNGFDQEHEQVADDHDSFMTERITGGASQVQSWQLMDDELSNCVHQSLNSSDCVSQTFVEGAAGRVAYGARKSRVQRLGQIQEQQRNVKTLSFDPRNDDVHYQSVISTIFKTNHQLILGPQFRNCDKQSSFTRWKKSSSSSSGTATVTAPSQGMLKKIIFDVPRVHQKEKLMLDSPEARDETGNHAVLEKKRREKLNERFMTLRKIIPSINKIDKVSILDDTIEYLQELERRVQELESCRESTDTETRGTMTMKRKKPCDAGERTSANCANNETGNGKKVSVNNVGEAEPADTGFTGLTDNLRIGSFGNEVVIELRCAWREGVLLEIMDVISDLHLDSHSVQSSTGDGLLCLTVNCKHKGSKIATPGMIKEALQRVAWIC
partner: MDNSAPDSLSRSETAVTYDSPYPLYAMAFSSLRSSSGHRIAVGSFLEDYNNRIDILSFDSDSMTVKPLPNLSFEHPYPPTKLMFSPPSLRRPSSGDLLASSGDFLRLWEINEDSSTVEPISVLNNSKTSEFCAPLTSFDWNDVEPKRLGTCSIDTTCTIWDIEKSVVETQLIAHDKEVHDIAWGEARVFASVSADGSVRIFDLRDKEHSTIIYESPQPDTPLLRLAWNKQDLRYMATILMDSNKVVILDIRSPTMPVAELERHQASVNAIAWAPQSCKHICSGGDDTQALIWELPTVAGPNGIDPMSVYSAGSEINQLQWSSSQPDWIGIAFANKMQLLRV
B2: Transcription factor GLABRA 3 (Arabidopsis thaliana (Mouse-ear cress)), Q9FN69 (parent)
chain: B1 chain
partner: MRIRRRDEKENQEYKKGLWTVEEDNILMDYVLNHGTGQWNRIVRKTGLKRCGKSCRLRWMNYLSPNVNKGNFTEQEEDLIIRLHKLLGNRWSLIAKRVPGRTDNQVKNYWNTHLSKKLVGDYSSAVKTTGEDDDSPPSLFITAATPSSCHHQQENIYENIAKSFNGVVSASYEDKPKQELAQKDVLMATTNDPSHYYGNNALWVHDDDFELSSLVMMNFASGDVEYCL

Variants of: B1
Settings: with ttg1_arath TTG1, Q9XGN1

effect of a mutation on the interaction | Variant
decreasing interaction | L78F

Variants of: B2
Settings: with gl1_arath GL1, P27900

effect of a mutation on the interaction | Variant
decreasing interaction | L78F
